Values of other authors, collected in patent US20050164248A1, “Compositions isolated from bovine tissues and methods for their use” (priority 1999, published 2005).

System: Candida albicans
Conditions: general statement, no value

B1: Lactoferrin (protein, UniProt P02788 20-710, looked up)
Lactotransferrin: GRRRSVQWCAVSQPEATKCFQWQRNMRKVRGPPVSCIKRDSPIQCIQAIAENRADAVTLDGGFIYEAGLAPYKLRPVAAEVYGTERQPRTHYYAVAVVKKGGSFQLNELQGLKSCHTGLRRTAGWNVPIGTLRPFLNWTGPPEPIEAAVARFFSASCVPGADKGQFPNLCRLCAGTGENKCAFSSQEPYFSYSGAFKCLRDGAGDVAFIRESTVFEDLSDEAERDEYELLCPDNTRKPVDKFKDCHLARVPSHAVVARSVNGKEDAIWNLLRQAQEKFGKDKSPKFQLFGSPSGQKDLLFKDSAIGFSRVPPRIDSGLYLGSGYFTAIQNLRKSEEEVAARRARVVWCAVGEQELRKCNQWSGLSEGSVTCSSASTTEDCIALVLKGEADAMSLDGGYVYTAGKCGLVPVLAENYKSQQSSDPDPNCVDRPVEGYLAVAVVRRSDTSLTWNSVKGKKSCHTAVDRTAGWNIPMGLLFNQTGSCKFDEYFSQSCAPGSDPRSNLCALCIGDEQGENKCVPNSNERYYGYTGAFRCLAENAGDVAFVKDVTVLQNTDGNNNEAWAKDLKLADFALLCLDGKRKPVTEARSCHLAMAPNHAVVSRMDKVERLKQVLLHQQAKFGRNGSDCPDKFCLFQSETKNLLFNDNTECLARLHGKTTYEKYLGPQYVAGITNLKKCSTSPLLEACEFLRK
  inhibitory activity against Candida (statement on control peptide): extremely inhibitory
